According to patent publication US20130011386A1:

target: FcγRIIIa (human) (UniProt P08637); assay: cell-based or functional assay
Sequence (P08637 17-208 limits assumed): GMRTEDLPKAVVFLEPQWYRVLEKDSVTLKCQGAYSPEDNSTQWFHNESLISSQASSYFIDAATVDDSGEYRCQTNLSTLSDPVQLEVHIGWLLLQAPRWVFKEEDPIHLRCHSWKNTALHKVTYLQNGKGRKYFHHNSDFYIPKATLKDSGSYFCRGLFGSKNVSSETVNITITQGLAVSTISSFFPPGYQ

| Substance | ADCC EC50 | ADCC fold (EC50 IgG1 wt/EC50 construct) |
| --- | --- | --- |
| IgG1 wt (construct 1), anti-CD142 antibody with wild type human IgG1 constant region | 0.42 ng/mL | 1 fold |
| 2h S267E/I332E (construct 17), anti-CD142 antibody | 5.6 ng/mL | 0.08 fold |
| 2h S239D/K326A/E333A (construct 16), anti-CD142 antibody | 0.14 ng/mL | – |

target: FcγRIIIa (human) (UniProt P08637); assay: cell-based or functional assay; remark: another data set of the same source

| Substance | ADCC EC50 | ADCC fold (EC50 IgG1 wt/EC50 construct) | ADCC (shift in apparent EC50 against IgG1 wt), PBMC effectors, MDA-MB-231 targets |
| --- | --- | --- | --- |
| IgG1 wt (construct 1), anti-CD142 antibody with wild type human IgG1 constant region | 4.8 ng/mL | – | – |
| 2h G237A/S239D/I332E (construct 12, X = A), anti-CD142 antibody | 0.47 ng/mL | 10 fold | – |
| 2h F243L/R292P/Y300L (construct 7), anti-CD142 antibody | 0.31 ng/mL | 15 fold | – |
| 2h S239D/H268F/S324T/I332E (construct 9), anti-CD142 antibody | 0.7 ng/mL | – | – |
| 2h K326A/E333A (construct 11), anti-CD142 antibody | 21 ng/mL | 0.2 fold | – |
| 2h S239D/I332E (construct 5), anti-CD142 antibody | 0.53 ng/mL | 9 fold | 8 fold |
